Test [1] addresses mutant Ang2 protein, A449 substituted with alanine, FLAG-tagged at its N-terminal (human) (UniProt O15123). Put plainly: ELISA, coated antibody 1000 nM, 250 ng FLAG-tagged mutant Ang2, anti-FLAG-HRP, OD450.
The target of test [2] is T1, hTie2-Fc (R&D Systems) (human, UniProt Q02763 23-745).
T1 construct: also called hTie-2/Fc fusion protein; not shown: Fc of human IgG1
Put plainly: ELISA: coated Tie2-Fc, 10D6 2 µg/ml without Ang2, detected with anti-mouse IgG-HRP (OD450). The procedure:
A 96-well MaxiSorp™ flat-bottom plate (Nunc) was coated with 4 ug/ml of Tie2-Fc (R&D systems) or BSA (Sigma). Then, the plate was washed five times with 0.05% (v/v) Tween-20-containing PBS (Phosphate Buffer Saline) and blocked with 1% (v/v) BSA (Bovine serum albumin; Sigma)-containing PBS at a room temperature for 2 hours. […] After that, an anti-mouse IgG antibody (Sigma) conjugated with HRP diluted in 1% (v/v) BSA-containing PBS at a ratio of 1:5,000 (v/v) was added in an amount of 100 ul to each well to react at a room temperature for 1 hour and then, the plate was washed five times with PBST. Lastly, 100 ul (microliter) of TMB substrate (Cell Signaling) was added to each well of the plate to induce color development for 3 min. and then, the reaction was ceased by the addition of 100 ul of Stop solution (Cell Signaling) and OD450 values were measured on a plate reader (Molecular Devices).

Test [3] addresses T2, BSA (bovine, UniProt P02769).
T2 construct: also called Bovine serum albumin; BSA (Sigma)
Briefly: ELISA: coated BSA, 10D6 2 µg/ml with or without FLAG-Ang2, detected with anti-mouse IgG-HRP (OD450). The procedure: A 96-well MaxiSorp™ flat-bottom plate (Nunc) was coated with 4 ug/ml of Tie2-Fc (R&D systems) or BSA (Sigma). Then, the plate was washed five times with 0.05% (v/v) Tween-20-containing PBS (Phosphate Buffer Saline) and blocked with 1% (v/v) BSA (Bovine serum albumin; Sigma)-containing PBS at a room temperature for 2 hours. 0.25 ug/ml of Ang2 and 2 ug/ml of antibody 10D6 were added to each well of the plate, which was allowed to react at a room temperature for 2 hours and then washed five times with PBST. After that, an anti-mouse IgG antibody (Sigma) conjugated with HRP diluted in 1% (v/v) BSA-containing PBS at a ratio of 1:5,000 (v/v) was added in an amount of 100 ul to each well to react at a room temperature for 1 hour and then, the plate was washed five times with PBST. Lastly, 100 ul (microliter) of TMB substrate (Cell Signaling) was added to each well of the plate to induce color development for 3 min. and then, the reaction was ceased by the addition of 100 ul of Stop solution (Cell Signaling) and OD450 values were measured on a plate reader (Molecular Devices).

Test [4] concerns the target T3, recombinant hAng2 (C-His, R&D Systems) (human, UniProt O15123 19-496).
T3 construct: also called human Ang2 protein
T3 sequence: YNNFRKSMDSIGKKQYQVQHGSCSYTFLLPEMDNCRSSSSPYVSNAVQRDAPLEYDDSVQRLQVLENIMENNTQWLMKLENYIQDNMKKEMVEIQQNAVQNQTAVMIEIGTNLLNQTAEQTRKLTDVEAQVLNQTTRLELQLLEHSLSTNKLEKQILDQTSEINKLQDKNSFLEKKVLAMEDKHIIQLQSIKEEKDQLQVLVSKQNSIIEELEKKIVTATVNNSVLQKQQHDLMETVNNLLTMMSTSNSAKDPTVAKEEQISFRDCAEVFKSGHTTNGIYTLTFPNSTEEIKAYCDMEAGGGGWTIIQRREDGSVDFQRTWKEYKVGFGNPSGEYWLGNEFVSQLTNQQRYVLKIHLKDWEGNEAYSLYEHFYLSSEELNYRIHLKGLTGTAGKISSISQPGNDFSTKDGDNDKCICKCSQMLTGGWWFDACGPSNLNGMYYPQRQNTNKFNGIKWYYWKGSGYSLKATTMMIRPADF
Put plainly: SPR, BIAcore T100; hAng2 (C-His) captured on anti-His antibody on a CM5 chip, antibody flowed from 100 nM in twofold dilutions. As for the experimental part: The binding affinity of the above antibody to human Ang2 protein was measured by an SPR method using a BIAcore T100 (GE Healthcare). The SPR method uses refractive index change of light which passes a sensor chip according to the state of materials coated onto the sensor chip, and if an antigen or an antibody is flowed onto a chip coated with the antigen or antibody, it causes changes in refractive index due to their binding and Kd values are thus calculated from the measured values.
First, anti-His antibody was immobilized on a CM5 sensor chip (GE healthcare) up to 8,000 RU levels using a pH 5.0 acetate solution and an amine coupling kit (GE Healthcare). 6 μg/ml of a recombinant hAng2 (C-His, R&D Systems) protein was flowed onto the chip to be captured at 100 to 200 RU levels.

Consider one molecule from patent US20150079112A1 (SAMSUNG ELECTRONICS, published 2015).

T1 sequence (Q02763 23-745 limits assumed): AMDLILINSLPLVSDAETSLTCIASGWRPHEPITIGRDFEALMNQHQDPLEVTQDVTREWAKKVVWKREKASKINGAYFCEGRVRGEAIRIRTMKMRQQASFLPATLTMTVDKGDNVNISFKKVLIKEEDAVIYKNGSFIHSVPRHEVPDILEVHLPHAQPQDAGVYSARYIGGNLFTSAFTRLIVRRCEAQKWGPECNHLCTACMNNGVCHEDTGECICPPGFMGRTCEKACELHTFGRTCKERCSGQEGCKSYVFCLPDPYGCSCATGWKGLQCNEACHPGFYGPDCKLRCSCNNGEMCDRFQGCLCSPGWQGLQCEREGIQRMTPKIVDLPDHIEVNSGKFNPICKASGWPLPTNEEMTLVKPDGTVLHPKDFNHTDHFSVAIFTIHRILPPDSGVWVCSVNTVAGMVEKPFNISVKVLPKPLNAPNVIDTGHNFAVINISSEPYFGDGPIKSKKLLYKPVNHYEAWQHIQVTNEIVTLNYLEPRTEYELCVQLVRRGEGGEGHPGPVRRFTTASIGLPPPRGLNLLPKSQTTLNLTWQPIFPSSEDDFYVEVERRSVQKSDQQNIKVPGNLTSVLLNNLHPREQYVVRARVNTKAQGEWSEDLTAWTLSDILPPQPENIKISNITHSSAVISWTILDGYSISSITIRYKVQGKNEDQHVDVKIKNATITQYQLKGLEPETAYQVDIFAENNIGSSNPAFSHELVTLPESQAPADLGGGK
T2 sequence (P02769 25-607 limits assumed): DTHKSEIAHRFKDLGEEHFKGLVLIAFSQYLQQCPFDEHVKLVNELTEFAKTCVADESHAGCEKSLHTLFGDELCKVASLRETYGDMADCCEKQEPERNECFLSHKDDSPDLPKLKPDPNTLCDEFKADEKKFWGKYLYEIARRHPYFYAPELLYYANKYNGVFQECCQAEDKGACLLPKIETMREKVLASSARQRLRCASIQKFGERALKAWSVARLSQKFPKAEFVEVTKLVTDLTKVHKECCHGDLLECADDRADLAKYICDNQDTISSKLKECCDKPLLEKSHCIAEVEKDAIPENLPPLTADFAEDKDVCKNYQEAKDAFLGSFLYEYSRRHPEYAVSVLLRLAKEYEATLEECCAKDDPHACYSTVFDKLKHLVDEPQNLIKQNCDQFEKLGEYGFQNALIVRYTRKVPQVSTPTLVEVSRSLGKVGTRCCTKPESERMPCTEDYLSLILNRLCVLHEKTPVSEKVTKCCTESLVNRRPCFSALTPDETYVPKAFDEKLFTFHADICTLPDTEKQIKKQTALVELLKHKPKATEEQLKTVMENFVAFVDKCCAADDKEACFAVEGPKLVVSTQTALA

B1: SAIT-ANG2-AB-m10D6 (antibody, V domains shown)
VH: DVQLQESGPGLVKPSQSLSLTCTVTGYSITSDYAWNWIRQFPGNKLEWMGYINYSGNTDYNPSLKSRSSITRDTSKNQFFLQLNSVTTGDTATYYCARGNFEGAMDYWGQGTSVTVSS
VL: SIVMTQTPKFLLVSAGDRVTITCKASQSVSNDVAWYQQKPGQSPKLLIYYASNRYPGVPDRFTGSGYGTDFTFTISTVQAEDLAVYFCQQDYSSPWTFGGGTKLEIK
notes: also called antibody 10D6; anti-Ang2 antibody (10D6)
B1 had a binding affinity (%) with mutant Ang2 against the binding affinity with the native Ang2 in test [1] of 97.9%. The binding result in test [2] and in test [3] was “no binding (tested: 2 µg/ml)” each time. Moreover, the Kd in test [4] turned out to be 8 nM.
